Test results published in patent publication US20110054149A1 (published 2011).

T1: GST-human NOGO-A56 (human, UniProt Q9NQC3 586-785)
T1 construct: also called hNOGO; recombinant human NOGO; not shown: Glutathione S-transferase (GST) tag encoded by vector pGEX-6P1, N-terminal to the NOGO-A fragment; the tag and linker se
T1 sequence: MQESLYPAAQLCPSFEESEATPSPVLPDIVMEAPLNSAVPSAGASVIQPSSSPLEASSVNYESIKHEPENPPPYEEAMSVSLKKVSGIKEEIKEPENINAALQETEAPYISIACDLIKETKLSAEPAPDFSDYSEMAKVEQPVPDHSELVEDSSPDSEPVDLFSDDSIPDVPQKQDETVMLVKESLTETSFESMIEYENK


target: T1, GST-human NOGO-A56; assay: SPR (Biacore 3000), GST-human NOGO-A56 on CM5 chip, antibody as analyte; single experiment
Method: (§1) The binding kinetics of the anti-NOGO monoclonal antibody (mAb) to recombinantly expressed human NOGO-A (GST-human NOGO-A56) was analysed using the Biacore3000 biosensor. The hNOGO-A chip was prepared as follows:
(§2) hNOGO (GST-human NOGO-A56) was immobilised to a CM5 chip by primary amine coupling using the Biacore Wizard program designed for targeted immobilisation levels. The CM5 sensor surface was activated by passing a solution of 50 mM N-hydroxy-succinimide (NHS) and 200 mM N-ethyl-N′-dimethylaminopropyl […] (EDC). Then hNOGO in sodium acetate buffer, pH5.0 or pH 4.5, was passed over the chip and immobilised. After immobilisation was complete any still activated esters were blocked by an injection of 1M ethanolamine hydrochloride, pH8.5.
(§3) The anti-NOGO mAbs were diluted down in HBS-EP (10 mM HEPES, pH 7.4, 150 mM NaCl, 3 mM EDTA, and 0.005% P-20 surfactant) and binding studies were carried out at range of defined antibody concentrations. All runs were referenced against a blanked sensor surface (one that had been activated and blocked as described earlier but had no addition of ligand). Analysis of binding was carried out using the BIAevaluation kinetic analysis software version 4.1. Biacore analysis of other antibodies of the invention essentially followed the same protocol as described herein.

Kd [nM]	koff [s⁻¹]	kon [M⁻¹ s⁻¹]	Binder
3.55	0.0134	3.78e+06	HcL11 (antibody, human IgG1, kappa, Chimeric heavy chain Hc paired with humanised light chain L11) heavy: not shown light: DIVITQSPLSLPVTLGQPASISCRSSKSLLYKDGKTYLNWFQQRPGQSPQLLIYLMSTRASGVPDRFSGGGSGTDFTLKISRVEAEDVGVYYCQQLVEYPLTFGQGTKLEIKRTVAAPSVFIFPPSDEQLKSGTASVVCLLNNFYPREAKVQWKVDNALQSGNSQESVTEQDSKDSTYSLSSTLTLSKADYEKHKVYACEVTHQGLSSPVTKSFNRGEC
12.9	0.0212	1.64e+06	H10L13 (antibody, V domains shown) VH: QVQLVQSGAEVKKPGASVKLSCKASGYTFTSYWMHWVKQAPGQGLEWIGNINPSNGGTNYNEKFKSRATLTVDKSTSTAYMELSSLRSEDTAVYYCELGQGYWGQGTLVTVSS VL: DIVMTQSPLSLPVTLGQPASISCRSSKSLLYKDGKTYLNWFQQRPGQSPQLLIYLMSTRASGVPDRFSGGGSGTDFTLKISRVEAEDVGVYYCQQLVEYPLTFGQGTKLEIK
1.98	0.00938	4.8e+06	HcL13 (antibody, human IgG1, kappa, Chimeric heavy chain Hc paired with humanised light chain L13) heavy: not shown light: DIVMTQSPLSLPVTLGQPASISCRSSKSLLYKDGKTYLNWFQQRPGQSPQLLIYLMSTRASGVPDRFSGGGSGTDFTLKISRVEAEDVGVYYCQQLVEYPLTFGQGTKLEIKRTVAAPSVFIFPPSDEQLKSGTASVVCLLNNFYPREAKVQWKVDNALQSGNSQESVTEQDSKDSTYSLSSTLTLSKADYEKHKVYACEVTHQGLSSPVTKSFNRGEC
19.4	0.0233	1.19e+06	H700L11 (antibody, human IgG1, kappa, V domains shown, Humanised 2A10; human gamma-1 mutated constant region, human kappa) VH: QVQLVQSGAEVKKPGASVKVSCKASGYTFTSYWMHWVRQAPGQGLEWIGNINPSNGGTNYNEKFKSRATLTVDKSTSTAYMELSSLRSEDTAVYYCELGQGYWGQGTLVTVSS VL: DIVITQSPLSLPVTLGQPASISCRSSKSLLYKDGKTYLNWFQQRPGQSPQLLIYLMSTRASGVPDRFSGGGSGTDFTLKISRVEAEDVGVYYCQQLVEYPLTFGQGTKLEIKR

The next lines start with the binder.

Binder	Kd [nM]	koff [s⁻¹]	kon [M⁻¹ s⁻¹]
H6L6 (antibody, human IgG1, kappa, V domains shown, Humanised 2A10; human gamma-1 mutated constant region, human kappa) VH: QVQLVQSGAEVKKPGASVKVSCKASGYTFTSYWMHWVRQAPGQGLEWIGNINPSNGGTNYNEKFKSRATMTRDTSTSTAYMELSSLRSEDTAVYYCELGQGYWGQGTLVTVSS VL: DIVMTQSPLSLPVTPGEPASISCRSSKSLLYKDGKTYLNWFLQRPGQSPQLLIYLMSTRASGVPDRFSGSGSGTDFTLKISRVEAEDVGVYYCQQLVEYPLTFGGGTKVEIKR	21.4	0.0254	1.2e+06
H5L6 (antibody, human IgG1, kappa, V domains shown, Humanised 2A10; human gamma-1 mutated constant region, human kappa) VH: QVQLVQSGAEVKKPGASVKVSCKASGYTFTSYWMHWVRQAPGQGLEWMGNINPSNGGTNYNEKFKSRVTMTRDTSTSTAYMELSSLRSEDTAVYYCELGQGYWGQGTLVTVSS VL: DIVMTQSPLSLPVTPGEPASISCRSSKSLLYKDGKTYLNWFLQRPGQSPQLLIYLMSTRASGVPDRFSGSGSGTDFTLKISRVEAEDVGVYYCQQLVEYPLTFGGGTKVEIKR	30.3	0.047	1.5e+06

target: T1, GST-human NOGO-A56; assay: SPR off-rate ranking (Biacore), CHO-K1 transfection supernatant over GST-human NOGO-A56 chip; single experiment
Method: as §2
The hNOGO chip was prepared as for kinetic analysis. Cell supernatants where taken directly from transient transfections of CHO—K1 cells. These were passed directly over the sensor surface and the interaction measured. A mock transfected cell supernatant was used for double referencing to remove any artefacts due to the tissue culture media. All runs were referenced against a blanked sensor surface (one that had been activated and blocked as described earlier but had no addition of ligand). Analysis of binding was carried out using the BIAevaluation kinetic analysis software version 4.1.

koff [s⁻¹]	Binder
0.00965	H15L13 (antibody, human IgG1, kappa, V domains shown, Humanised 2A10; tested as CHO-K1 transfection supernatant; Human gamma-1 mutated constant region, human kappa) VH: QVQLVQSGAEVVKPGASVKLSCKASGYTFTSYWMHWVKQRPGQGLEWIGNINPSNGGTNYNEKFKSKATLTVDTSSSTAYMELSSLRSEDSAVYYCELGQGYWGQGTLVTVSS VL: DIVMTQSPLSLPVTLGQPASISCRSSKSLLYKDGKTYLNWFQQRPGQSPQLLIYLMSTRASGVPDRFSGGGSGTDFTLKISRVEAEDVGVYYCQQLVEYPLTFGQGTKLEIKR
0.00594	H15L18 (antibody, human IgG1, kappa, V domains shown, Humanised 2A10; tested as CHO-K1 transfection supernatant; Human gamma-1 mutated constant region, human kappa) VH: QVQLVQSGAEVVKPGASVKLSCKASGYTFTSYWMHWVKQRPGQGLEWIGNINPSNGGTNYNEKFKSKATLTVDTSSSTAYMELSSLRSEDSAVYYCELGQGYWGQGTLVTVSS VL: DIVMTQDPLSNPVTLGQPVSISCRSSKSLLYKDGKTYLNWFLQRPGQSPQLLIYLMSTRASGVSDRFSGSGSGTDFTLKISRVEAEDVGVYYCQQLVEYPLTFGQGTKLEIKR
0.00604	H15L16 (antibody, human IgG1, kappa, V domains shown, Humanised 2A10; tested as CHO-K1 transfection supernatant; Human gamma-1 mutated constant region, human kappa) VH: QVQLVQSGAEVVKPGASVKLSCKASGYTFTSYWMHWVKQRPGQGLEWIGNINPSNGGTNYNEKFKSKATLTVDTSSSTAYMELSSLRSEDSAVYYCELGQGYWGQGTLVTVSS VL: DIVMTQSPLSNPVTLGQPVSISCRSSKSLLYKDGKTYLNWFLQRPGQSPQLLIYLMSTRASGVPDRFSGGGSGTDFTLKISRVEAEDVGVYYCQQLVEYPLTFGQGTKLEIKR
0.00907	H16L13 (antibody, human IgG1, kappa, Humanised 2A10; tested as CHO-K1 transfection supernatant; Human gamma-1 mutated constant region, human kappa) heavy: not shown light: DIVMTQSPLSLPVTLGQPASISCRSSKSLLYKDGKTYLNWFQQRPGQSPQLLIYLMSTRASGVPDRFSGGGSGTDFTLKISRVEAEDVGVYYCQQLVEYPLTFGQGTKLEIKRTVAAPSVFIFPPSDEQLKSGTASVVCLLNNFYPREAKVQWKVDNALQSGNSQESVTEQDSKDSTYSLSSTLTLSKADYEKHKVYACEVTHQGLSSPVTKSFNRGEC

Further lines, the binder ahead of its results:

Binder	koff [s⁻¹]
H14L13 (antibody, human IgG1, kappa, V domains shown, Humanised 2A10; tested as CHO-K1 transfection supernatant; Human gamma-1 mutated constant region, human kappa) VH: QVQLVQSGAEVVKPGASVKLSCKASGYTFTSYWMHWVKQAPGQGLEWIGNINPSNGGTNYNEKFKSRATLTRDTSTSTAYMELSSLRSEDTAVYYCELGQGYWGQGTLVTVSS VL: DIVMTQSPLSLPVTLGQPASISCRSSKSLLYKDGKTYLNWFQQRPGQSPQLLIYLMSTRASGVPDRFSGGGSGTDFTLKISRVEAEDVGVYYCQQLVEYPLTFGQGTKLEIKR	0.0138
H6L16 (antibody, human IgG1, kappa, Humanised 2A10; tested as CHO-K1 transfection supernatant; Human gamma-1 mutated constant region, human kappa) heavy: not shown light: DIVMTQSPLSNPVTLGQPVSISCRSSKSLLYKDGKTYLNWFLQRPGQSPQLLIYLMSTRASGVPDRFSGGGSGTDFTLKISRVEAEDVGVYYCQQLVEYPLTFGQGTKLEIKRTVAAPSVFIFPPSDEQLKSGTASVVCLLNNFYPREAKVQWKVDNALQSGNSQESVTEQDSKDSTYSLSSTLTLSKADYEKHKVYACEVTHQGLSSPVTKSFNRGEC	0.0114
H6L18 (antibody, human IgG1, kappa, V domains shown, Humanised 2A10; tested as CHO-K1 transfection supernatant; Human gamma-1 mutated constant region, human kappa) VH: QVQLVQSGAEVKKPGASVKVSCKASGYTFTSYWMHWVRQAPGQGLEWIGNINPSNGGTNYNEKFKSRATMTRDTSTSTAYMELSSLRSEDTAVYYCELGQGYWGQGTLVTVSS VL: DIVMTQDPLSNPVTLGQPVSISCRSSKSLLYKDGKTYLNWFLQRPGQSPQLLIYLMSTRASGVSDRFSGSGSGTDFTLKISRVEAEDVGVYYCQQLVEYPLTFGQGTKLEIKR	0.0106
H6L14 (antibody, human IgG1, kappa, Humanised 2A10; tested as CHO-K1 transfection supernatant; Human gamma-1 mutated constant region, human kappa) heavy: not shown light: DIVMTQSPLSLPVTLGQPASISCRSSKSLLYKDGKTYLNWFLQRPGQSPQLLIYLMSTRASGVPDRFSGGGSGTDFTLKISRVEAEDVGVYYCQQLVEYPLTFGQGTKLEIKRTVAAPSVFIFPPSDEQLKSGTASVVCLLNNFYPREAKVQWKVDNALQSGNSQESVTEQDSKDSTYSLSSTLTLSKADYEKHKVYACEVTHQGLSSPVTKSFNRGEC	0.0457
H6L15 (antibody, human IgG1, kappa, V domains shown, Humanised 2A10; tested as CHO-K1 transfection supernatant; Human gamma-1 mutated constant region, human kappa) VH: QVQLVQSGAEVKKPGASVKVSCKASGYTFTSYWMHWVRQAPGQGLEWIGNINPSNGGTNYNEKFKSRATMTRDTSTSTAYMELSSLRSEDTAVYYCELGQGYWGQGTLVTVSS VL: DIVMTQSPLSLPVTLGQPASISCRSSKSLLYKDGKTYLNWFLQRPGQSPQLLIYLMSTRASGVSDRFSGGGSGTDFTLKISRVEAEDVGVYYCQQLVEYPLTFGQGTKLEIKR	0.0211
H6L17 (antibody, human IgG1, kappa, V domains shown, Humanised 2A10; tested as CHO-K1 transfection supernatant; Human gamma-1 mutated constant region, human kappa) VH: QVQLVQSGAEVKKPGASVKVSCKASGYTFTSYWMHWVRQAPGQGLEWIGNINPSNGGTNYNEKFKSRATMTRDTSTSTAYMELSSLRSEDTAVYYCELGQGYWGQGTLVTVSS VL: DIVMTQDPLSLPVTLGQPASISCRSSKSLLYKDGKTYLNWFQQRPGQSPQLLIYLMSTRASGVSDRFSGSGSGTDFTLKISRVEAEDVGVYYCQQLVEYPLTFGQGTKLEIKR	0.0158

target: T1, GST-human NOGO-A56; assay: SPR (Biacore 3000), GST-human NOGO-A56 amine-coupled to CM5 chip, antibody as analyte; mean (SD) of four experiments
Method: as §1, §2, §3

Kd [nM]	koff [s⁻¹]	kon [M⁻¹ s⁻¹]	Binder
1.82	0.0061	3.38e+06	H17L16 (antibody, human IgG1, kappa, Humanised 2A10; human gamma-1 mutated constant region, human kappa) heavy: not shown light: DIVMTQSPLSNPVTLGQPVSISCRSSKSLLYKDGKTYLNWFLQRPGQSPQLLIYLMSTRASGVPDRFSGGGSGTDFTLKISRVEAEDVGVYYCQQLVEYPLTFGQGTKLEIKRTVAAPSVFIFPPSDEQLKSGTASVVCLLNNFYPREAKVQWKVDNALQSGNSQESVTEQDSKDSTYSLSSTLTLSKADYEKHKVYACEVTHQGLSSPVTKSFNRGEC
